Measurements from PMC9482650, “Quantitative fragmentomics allow affinity mapping of interactomes” (Nature Communications, 2022).
One block for each binder: values may come before it.

Tests used:
Assay in all cases: holdup assay
Set-up in all cases: key: below the threshold = too weak to quantify, mostly under pKd 3.1 to 4
APBA1_1, Q02410 = target: T1, APBA1_1, Q02410
T1 sequence (Q02410 651-752, limits assumed, looked up): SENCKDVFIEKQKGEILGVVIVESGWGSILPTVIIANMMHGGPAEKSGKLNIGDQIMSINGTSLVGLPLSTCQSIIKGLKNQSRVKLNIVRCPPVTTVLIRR

APBA2_1, Q99767 = target: T2, APBA2_1, Q99767
T2 sequence (Q99767 563-664, limits assumed, looked up): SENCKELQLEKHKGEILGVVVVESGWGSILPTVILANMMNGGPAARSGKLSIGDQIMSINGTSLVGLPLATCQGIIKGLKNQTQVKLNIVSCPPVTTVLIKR

APBA2_2, Q99767 = target: T3, APBA2_2, Q99767
T3 sequence (Q99767 654-744, limits assumed, looked up): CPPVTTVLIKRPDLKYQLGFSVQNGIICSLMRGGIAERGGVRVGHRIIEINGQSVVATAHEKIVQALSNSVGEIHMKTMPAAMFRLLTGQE

ARHGEF11, O15085 = target: T4, ARHGEF11, O15085
T4 sequence (O15085 42-136, limits assumed, looked up): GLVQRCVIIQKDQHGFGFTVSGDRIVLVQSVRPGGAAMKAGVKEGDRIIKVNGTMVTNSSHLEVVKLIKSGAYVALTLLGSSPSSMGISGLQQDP

CASK, O14936 = target: CASK, O14936
CASK, O14936, sequence (O14936 487-570): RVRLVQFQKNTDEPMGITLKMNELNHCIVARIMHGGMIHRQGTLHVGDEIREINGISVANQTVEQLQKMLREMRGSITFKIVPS

DFNB31_1, Q9P202 = target: T5, DFNB31_1, Q9P202
T5 sequence (Q9P202 135-233, limits assumed, looked up): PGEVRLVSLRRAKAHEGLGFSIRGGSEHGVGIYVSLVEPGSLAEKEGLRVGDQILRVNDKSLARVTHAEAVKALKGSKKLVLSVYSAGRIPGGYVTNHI

DLG1_2, Q12959 = target: DLG1_2, Q12959
DLG1_2, Q12959, sequence (Q12959 314-412): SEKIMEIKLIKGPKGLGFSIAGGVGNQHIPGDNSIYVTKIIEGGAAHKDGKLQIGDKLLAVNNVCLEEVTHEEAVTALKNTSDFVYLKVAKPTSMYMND

DLG1_3, Q12959 = target: DLG1_3, Q12959
DLG1_3, Q12959, sequence (Q12959 457-571): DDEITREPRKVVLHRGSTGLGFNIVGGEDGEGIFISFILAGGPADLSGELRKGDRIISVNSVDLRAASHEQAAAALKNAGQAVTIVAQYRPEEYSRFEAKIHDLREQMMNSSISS

DLG3_3, Q92796 = target: T6, DLG3_3, Q92796
T6 sequence (Q92796 374-475, limits assumed, looked up): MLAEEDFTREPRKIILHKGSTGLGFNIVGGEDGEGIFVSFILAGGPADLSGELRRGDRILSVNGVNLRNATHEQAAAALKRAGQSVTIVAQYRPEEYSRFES

DLG4_1, P78352 = target: DLG4_1, P78352
DLG4_1, P78352, sequence (P78352 62-152): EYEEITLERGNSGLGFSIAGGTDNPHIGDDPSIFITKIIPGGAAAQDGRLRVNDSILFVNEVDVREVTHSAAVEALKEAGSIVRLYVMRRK

FRMPD4, Q14CM0 = target: FRMPD4, Q14CM0
FRMPD4, Q14CM0, sequence (Q14CM0 67-160): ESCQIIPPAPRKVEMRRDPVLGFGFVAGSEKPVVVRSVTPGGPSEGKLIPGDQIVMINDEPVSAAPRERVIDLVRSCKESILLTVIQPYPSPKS

GOPC, Q9HD26 = target: GOPC, Q9HD26
GORASP2, Q9H8Y8 = target: GORASP2, Q9H8Y8
GRID2IP_2, A4D2P6 = target: GRID2IP_2, A4D2P6
GRID2IP_2, A4D2P6, sequence (A4D2P6 272-370): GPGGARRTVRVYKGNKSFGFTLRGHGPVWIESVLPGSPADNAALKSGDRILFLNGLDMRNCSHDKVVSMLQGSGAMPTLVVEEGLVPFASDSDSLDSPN

GRIP1_2, Q9Y3R0 = target: T7, GRIP1_2, Q9Y3R0
T7 sequence (Q9Y3R0 145-248, limits assumed, looked up): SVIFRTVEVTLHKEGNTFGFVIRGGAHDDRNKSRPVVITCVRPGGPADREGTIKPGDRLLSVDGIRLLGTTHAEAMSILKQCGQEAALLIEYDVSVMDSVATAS

GRIP1_5, Q9Y3R0 = target: T8, GRIP1_5, Q9Y3R0
T8 sequence (Q9Y3R0 568-668, limits assumed, looked up): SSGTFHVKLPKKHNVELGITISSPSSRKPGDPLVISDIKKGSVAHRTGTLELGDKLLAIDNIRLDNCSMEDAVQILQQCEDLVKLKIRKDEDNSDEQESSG

IL16_1, Q14005 = target: IL16_1, Q14005
IL16_1, Q14005, sequence (Q14005 210-306): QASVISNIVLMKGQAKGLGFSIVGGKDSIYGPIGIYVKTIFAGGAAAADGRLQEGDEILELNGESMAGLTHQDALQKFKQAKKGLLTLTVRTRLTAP

IL16_3, Q14005 = target: IL16_3, Q14005
IL16_3, Q14005, sequence (Q14005 1107-1207): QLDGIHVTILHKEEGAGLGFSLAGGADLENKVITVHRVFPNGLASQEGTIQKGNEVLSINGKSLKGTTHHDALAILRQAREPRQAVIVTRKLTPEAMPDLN

LNX1_1, Q8TBB1 = target: LNX1_1, Q8TBB1
LNX1_1, Q8TBB1, sequence (Q8TBB1 261-371): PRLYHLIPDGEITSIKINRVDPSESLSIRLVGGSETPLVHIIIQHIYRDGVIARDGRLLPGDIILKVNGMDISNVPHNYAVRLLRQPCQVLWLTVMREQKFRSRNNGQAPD

LNX1_2, Q8TBB1 = target: LNX1_2, Q8TBB1
LNX1_2, Q8TBB1, sequence (Q8TBB1 371-470): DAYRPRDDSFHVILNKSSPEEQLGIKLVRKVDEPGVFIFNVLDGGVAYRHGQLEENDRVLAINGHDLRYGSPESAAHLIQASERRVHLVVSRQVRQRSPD

MPDZ_5, O75970 = target: T9, MPDZ_5, O75970
T9 sequence (O75970 695-796, limits assumed, looked up): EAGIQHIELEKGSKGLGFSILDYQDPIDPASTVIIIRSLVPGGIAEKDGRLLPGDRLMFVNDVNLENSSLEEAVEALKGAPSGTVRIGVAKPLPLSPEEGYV

MPP2, Q14168 = target: T10, MPP2, Q14168
T10 sequence (Q14168 180-250, limits assumed, looked up): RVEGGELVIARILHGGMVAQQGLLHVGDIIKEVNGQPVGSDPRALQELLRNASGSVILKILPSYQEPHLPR

NHERF3_3, Q5T2W1 = target: T11, NHERF3_3, Q5T2W1
T11 sequence (Q5T2W1 238-333, limits assumed, looked up): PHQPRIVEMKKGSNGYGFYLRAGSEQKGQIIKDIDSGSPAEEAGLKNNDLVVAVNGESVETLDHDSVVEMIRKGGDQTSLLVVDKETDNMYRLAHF

NHERF4_4, Q86UT5 = target: NHERF4_4, Q86UT5
NHERF4_4, Q86UT5, sequence (Q86UT5 464-550): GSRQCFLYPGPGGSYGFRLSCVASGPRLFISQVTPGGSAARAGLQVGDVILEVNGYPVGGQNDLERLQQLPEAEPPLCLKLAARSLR

SNTB1, Q13884 = target: T12, SNTB1, Q13884
T12 sequence (Q13884 107-205, limits assumed, looked up): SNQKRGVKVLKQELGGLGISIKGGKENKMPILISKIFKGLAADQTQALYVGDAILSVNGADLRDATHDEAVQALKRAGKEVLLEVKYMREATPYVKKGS

TJP1_3, Q07157 = target: TJP1_3, Q07157
TJP1_3, Q07157, sequence (Q07157 416-512): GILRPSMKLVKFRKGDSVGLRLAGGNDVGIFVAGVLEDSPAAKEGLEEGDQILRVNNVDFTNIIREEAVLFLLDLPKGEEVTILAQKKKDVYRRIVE

[1] = modified: phospho on T at position -1 from the C-terminal residue
[2] = plain residues with an end cap or a label only (N-terminal biotin on a linker: ado-ado)

pKd (APBA1_1, Q02410; [1]): 3.56
pKd (APBA2_1, Q99767; [1]): below the threshold
pKd (APBA2_2, Q99767; [1]): below the threshold
pKd (ARHGEF11, O15085; [1]): 4.29
pKd (CASK, O14936; [1]): below the threshold
pKd (DFNB31_1, Q9P202; [1]): 3.6
pKd (DLG1_2, Q12959; [1]): 3.83
pKd (DLG1_3, Q12959; [1]): 3.7
pKd (DLG3_3, Q92796; [1]): 3.63
pKd (DLG4_1, P78352; [1]): 3.8
pKd (FRMPD4, Q14CM0; [1]): 3.62
pKd (GOPC, Q9HD26; [1]): 4.66
pKd (GORASP2, Q9H8Y8; [1]): 3.76
pKd (GRID2IP_2, A4D2P6; [1]): 4.22
pKd (GRIP1_2, Q9Y3R0; [1]): below the threshold
pKd (GRIP1_5, Q9Y3R0; [1]): below the threshold
pKd (IL16_1, Q14005; [1]): 3.46
pKd (IL16_3, Q14005; [1]): below the threshold
pKd (LNX1_1, Q8TBB1; [1]): 4.63
pKd (LNX1_2, Q8TBB1; [1]): below the threshold
pKd (MPDZ_5, O75970; [1]): 3.5
pKd (MPP2, Q14168; [1]): below the threshold
pKd (NHERF3_3, Q5T2W1; [1]): 3.36
pKd (NHERF4_4, Q86UT5; [1]): below the threshold
pKd (SNTB1, Q13884; [1]): 3.91
pKd (TJP1_3, Q07157; [1]): below the threshold
Binder: RRVRKLPSTTL [RPS6KA1_-1P, Q15418]

pKd (APBA1_1, Q02410; [2]): below the threshold
pKd (APBA2_1, Q99767; [2]): below the threshold
pKd (APBA2_2, Q99767; [2]): below the threshold
pKd (ARHGEF11, O15085; [2]): 4.2
pKd (CASK, O14936; [2]): below the threshold
pKd (DFNB31_1, Q9P202; [2]): 3.73
pKd (DLG1_2, Q12959; [2]): below the threshold
pKd (DLG1_3, Q12959; [2]): below the threshold
pKd (DLG3_3, Q92796; [2]): below the threshold
pKd (DLG4_1, P78352; [2]): below the threshold
pKd (FRMPD4, Q14CM0; [2]): 4.07
pKd (GOPC, Q9HD26; [2]): 3.86
pKd (GORASP2, Q9H8Y8; [2]): below the threshold
pKd (GRID2IP_2, A4D2P6; [2]): 4.75
pKd (GRIP1_2, Q9Y3R0; [2]): below the threshold
pKd (GRIP1_5, Q9Y3R0; [2]): below the threshold
pKd (IL16_1, Q14005; [2]): below the threshold
pKd (IL16_3, Q14005; [2]): below the threshold
pKd (LNX1_1, Q8TBB1; [2]): below the threshold
pKd (LNX1_2, Q8TBB1; [2]): below the threshold
pKd (MPDZ_5, O75970; [2]): below the threshold
pKd (MPP2, Q14168; [2]): below the threshold
pKd (NHERF3_3, Q5T2W1; [2]): 4.79
pKd (NHERF4_4, Q86UT5; [2]): below the threshold
pKd (SNTB1, Q13884; [2]): 3.99
pKd (TJP1_3, Q07157; [2]): below the threshold
Binder: DQPLEKSTKL [AKAP10, O43572]

pKd (APBA1_1, Q02410; [2]): below the threshold
pKd (APBA2_1, Q99767; [2]): below the threshold
pKd (APBA2_2, Q99767; [2]): below the threshold
pKd (ARHGEF11, O15085; [2]): 4.18
pKd (CASK, O14936; [2]): below the threshold
pKd (DFNB31_1, Q9P202; [2]): below the threshold
pKd (DLG1_2, Q12959; [2]): 4.29
pKd (DLG1_3, Q12959; [2]): below the threshold
pKd (DLG3_3, Q92796; [2]): below the threshold
pKd (DLG4_1, P78352; [2]): below the threshold
pKd (FRMPD4, Q14CM0; [2]): below the threshold
pKd (GOPC, Q9HD26; [2]): below the threshold
pKd (GORASP2, Q9H8Y8; [2]): below the threshold
pKd (GRID2IP_2, A4D2P6; [2]): 4.38
pKd (GRIP1_2, Q9Y3R0; [2]): below the threshold
pKd (GRIP1_5, Q9Y3R0; [2]): below the threshold
pKd (IL16_1, Q14005; [2]): below the threshold
pKd (IL16_3, Q14005; [2]): below the threshold
pKd (LNX1_1, Q8TBB1; [2]): 3.67
pKd (LNX1_2, Q8TBB1; [2]): below the threshold
pKd (MPDZ_5, O75970; [2]): below the threshold
pKd (MPP2, Q14168; [2]): below the threshold
pKd (NHERF3_3, Q5T2W1; [2]): below the threshold
pKd (NHERF4_4, Q86UT5; [2]): 3.6
pKd (SNTB1, Q13884; [2]): 4.11
pKd (TJP1_3, Q07157; [2]): below the threshold
Binder: LEPAVRSSEL [SH2D3C, Q8N5H7]
